Measurements as given in patent US20220098306A1 (Xencor, published 2022).

Target: T1, CD28-Fc-His protein (human, UniProt P10747 19-152)
T1 construct: Captured on anti-HIS (HIS1K) biosensors; also called CD28 antigen; not shown: Fc; His tag
Test: Octet (BLI), CD28-Fc-His on HIS1K biosensors, 1:1 Langmuir and steady state fits
Excerpt: To investigate whether the difference observed for XENP34339 resulted from the difference in B7H3 binding domain or the difference in bispecific antibody format, the component binding domains of XENP34339 and XENP34389 were biophysically characterized using Octet. […] Anti-mouse Fc biosensors were used to capture mouse Fc fusions of B7H3, either the full extracellular V1C1-[…] domain or the individual V1C1 or V2C2 domains, and dipped into multiple concentrations of XENP34717 or XENP34728. Kinetic analyses were performed by global fitting of binding data with a 1:1 Langmuir binding model. […] Next, the binding affinities of the CD28 binding domains for CD28 antigen in the 2+1 CLC format and the 2+1 Fab2-scFv-Fc format was investigated. Anti-HIS capture (HIS1K) biosensors were used to capture CD28-Fc-His protein and dipped into multiple concentrations of XENP34339 or XENP34389. Kinetic analyses were performed by global fitting of binding data with a 1:1 Langmuir binding model as well as steady state model. The resulting dissociation constant (KD) are depicted in FIG. 53.

binding result: binds
B1: XENP34389 (bispecific antibody)
heavy 1: EVQLLESGGGLVQPGGSLRLSCAASGFTFSNYYMAWVRQAPGKGLEWVSSISTGGGSTYYRDSVKGRFTISRDNSKSTLYLQMNSLRAEDTAVYYCTTDLSAIAATPFAYWGQGTLVTVSSASTKGPSVFPLAPSSKSTSGGTAALGCLVKDYFPEPVTVSWNSGALTSGVHTFPAVLQSSGLYSLSSVVTVPSSSLGTQTYICNVNHKPSDTKVDKKVEPKSCDKTHTCPPCPAPPVAGPSVFLFPPKPKDTLMISRTPEVTCVVVDVKHEDPEVKFNWYVDGVEVHNAKTKPREEEYNSTYRVVSVLTVLHQDWLNGKEYKCKVSNKALPAPIEKTISKAKGQPREPQVYTLPPSREEMTKNQVSLTCDVSGFYPSDIAVEWESDGQPENNYKTTPPVLDSDGSFFLYSKLTVDKSRWEQGDVFSCSVMHEALHNHYTQKSLSLSPGK
heavy 2: not shown
light: DIQMTQSPSSLSASVGDRVTITCRASQNIYTSLAWYQQKPGKAPKLLIYNAHSLQTGIPSRFSGSGSGADFTLTISSLQPEDFATYFCQQYYSGLTFGSGTKLEIKRTVAAPSVFIFPPSDEQLKSGTASVVCLLNNFYPREAKVQWKVDNALQSGNSQESVTEQDSKDSTYSLSSTLTLSKADYEKHKVYACEVTHQGLSSPVTKSFNRGEC
notes: 2+1 Fab2-scFv-Fc; also called B7H3 x CD28 in 2+1 Fab2-scFv-Fc format; copies: 1 + 1 + 2
